Data taken from paper PMC3739785, “A Primate Specific Extra Domain in the Molecular Chaperone Hsp90” (PLoS ONE, 2013).

Experiments:
human Hsp90α = target: T1, human Hsp90α (human, UniProt P07900-1 1-732); assay: SEC; chaperone and cochaperone at 2.5 µM, 10 min at 30°C following 10 min on ice, 40 mM Hepes-KOH pH 7.4, 50 mM KCl, 2 mM Mg2Cl; Superdex 200 HR 10/30 in the same buffer; fractions analysed by SDS-PAGE (Western blot for Aha1 and Cdc37 in the Hsp103 runs); shift of the cochaperone to higher molecular mass; conditions: both partners purified
T1 construct: human Hsp90α (Hsp90AA1-1), canonical isoform, 732 aa as printed; also called Hsp90AA1-1; heat shock protein 90

human Hsp103 = target: T2, human Hsp103 (human, UniProt P07900-2 1-854); assay: as above; conditions: both partners purified
T2 construct: human Hsp103, the isoform of Hsp90α with an additional 122 aa (E domain) at the N-terminus; printed length 854 aa (also printed as 852 aa for Hsp90AA1-2); also called Hsp90AA1-2; Hsp90α with extra E domain

binding result (human Hsp90α): binds
binding result (human Hsp103): binds
B1: human Cdc37 (natural protein, UniProt Q16543 1-378, looked up)
chain: MVDYSVWDHIEVSDDEDETHPNIDTASLFRWRHQARVERMEQFQKEKEELDRGCRECKRKVAECQRKLKELEVAEGGKAELERLQAEAQQLRKEERSWEQKLEEMRKKEKSMPWNVDTLSKDGFSKSMVNTKPEKTEEDSEEVREQKHKTFVEKYEKQIKHFGMLRRWDDSQKYLSDNVHLVCEETANYLVIWCIDLEVEEKCALMEQVAHQTIVMQFILELAKSLKVDPRACFRQFFTKIKTADRQYMEGFNDELEAFKERVRGRAKLRIEKAMKEYEEEERKKRLGPGGLDPVEVYESLPEELQKCFDVKDVQMLQDAISKMDPTDAKYHMQRCIDSGLWVPNSKASEAKEGEEAGPGDPLLEAVPKTGDEKDVSV
notes: human Cdc37, cochaperone of Hsp90
